The values that follow come from patent US9340616B2, “Methods and compositions for heptameric targeting ligands” (The University of North Carolina at Chapel Hill, priority 2011, dated 2016).

This experiment deals with T1, PSMA (Homo sapiens, UniProt Q04609).
T1 construct: the extracellular domains of EGFR, HER2, and PSMA that are immobilized on the surface of CM5 biosensor chips; purchased R&D System, Minneapolis, Minn
The experiment can be described thus: BIAcore surface plasmon resonance on immobilized PSMA. In kind it is binding. The following applies: for binding to the PSMA receptor: PSMA monomer injected at 100 uM. The procedure: BIAcore 2000 (BIAcore AB, Uppsala, Sweden) was used for surface plasmon resonance (SPR) analysis. Purified extracellular domain of recombinant human EGFR ECD-Fc, HER2 ECD-Fc, and PSMA were diluted in 10 mM sodium acetate pH 5.0 and immobilized on a CM5 sensor chip (GE healthcare) by amine coupling according to the manufacturer's instruction (about 2,500 resonance unit). Various concentrations of monomeric and heptameric targeting ligands were injected onto the flow cell in an HBS-P buffer (10 mM HEPES pH7.4, 150 mM NaCl, and 0.005% surfactant P20) at a flow rate of 20 μl/min or 30 μl/min. The dissociation constants (Kd) were calculated using BIAevaluation software (BIAcore) by fitting data on one to one Langmuir binding model.
The BIAcore 2000 (BIAcore AB, Uppsala, Sweden) was used for surface plasmon resonance analysis. 1 μg of purified extracellular domain of recombinant human EGFR ECD-Fc, HER2 ECD-Fc, or PSMA (R&D System, Minneapolis, Minn.), was diluted in a buffer containing 10 mM sodium acetate pH 5.0 and immobilized on a CM5 sensor chip (GE healthcare, Piscataway, N.J.) by amine coupling according to the manufacturer's instruction (about 2,500 resonance units). Various concentrations of monomeric or heptameric ligands were injected onto the flow cell in an HBS-P buffer (10 mM HEPES pH 7.4, 150 mM NaCl, and 0.005% surfactant P20) at a flow rate of 20 μl/min. The dissociation equilibrium constant (KD), the association rate (Ka) and the dissociation rate (Kd) were calculated using the BIAevaluation software (BIAcore) by fitting the data on a one to one Langmuir binding model.
(In general: Surface plasmon resonance follows binding to a sensor surface in real time, without labels.)

T1 sequence (Q04609 44-750 limits assumed): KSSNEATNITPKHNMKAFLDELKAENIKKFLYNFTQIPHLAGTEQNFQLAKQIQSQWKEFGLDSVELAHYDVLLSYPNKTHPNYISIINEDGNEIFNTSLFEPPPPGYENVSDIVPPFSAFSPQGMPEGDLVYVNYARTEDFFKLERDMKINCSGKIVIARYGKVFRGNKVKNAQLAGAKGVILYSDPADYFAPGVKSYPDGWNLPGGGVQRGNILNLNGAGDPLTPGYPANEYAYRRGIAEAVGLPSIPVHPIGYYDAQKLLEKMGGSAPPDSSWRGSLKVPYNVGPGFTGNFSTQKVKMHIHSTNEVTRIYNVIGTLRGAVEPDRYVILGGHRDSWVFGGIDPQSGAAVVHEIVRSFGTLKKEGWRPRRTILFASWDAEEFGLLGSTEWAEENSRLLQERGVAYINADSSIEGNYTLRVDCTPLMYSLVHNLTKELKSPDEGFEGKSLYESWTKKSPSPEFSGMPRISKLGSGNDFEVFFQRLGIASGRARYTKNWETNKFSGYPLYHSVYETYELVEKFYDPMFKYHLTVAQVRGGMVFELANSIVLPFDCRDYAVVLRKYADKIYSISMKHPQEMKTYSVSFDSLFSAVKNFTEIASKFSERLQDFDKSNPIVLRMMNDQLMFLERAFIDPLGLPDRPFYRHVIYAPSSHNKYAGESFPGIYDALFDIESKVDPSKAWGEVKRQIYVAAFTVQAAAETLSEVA

B1: PSMA monomer: PSMA-binding peptide WQPDTAHHWATL on a truncated, nonfunctional Sm1 domain lacking the C-terminal 23 residues (protein)
chain: MWQPDTAHHWATLGPQPQPKPQPKPEPEPQPQGGMPPRPLDVLNRSLKSPVIVRLKGGREFRGTLDGYDIHMNLVLLDAEEIQNGEVVHHHHHH
Consider B1, for which the “binding to the PSMA receptor” value is “did not bind”.

B2: PSMA-Heptamer: AF-Sm1 heptamerization domain fused with the 12 amino-acid PSMA-binding peptide WQPDTAHHWATL, self-assembled heptamer (protein)
chain: MWQPDTAHHWATLGPQPQPKPQPKPEPEPQPQGGMPPRPLDVLNRSLKSPVIVRLKGGREFRGTLDGYDIHMNLVLLDAEEIQNGEVVRKVGSVVIRGDTVVFVSPAPGGEHHHHHH
B2: the “binding to the PSMA receptor” value is on record as “bind marginally”. The Kd (dissociation rate, one to one Langmuir model) was 1.09e-06 s⁻¹.
